From patent US20020090379A1, “INDUCING ANTIBODY RESPONSE AGAINST SELF-PROTEINS WITH THE AID OF FOREIGN T-CELL EPITOPES” (priority 1993, published 2002)

Legend:
A^k molecule = A^k molecule (Mus musculus, UniProt P01910+P06343); assay: Competitive inhibition of radiolabelled peptide binding to affinity purified MHC class II A^k; conditions: 125I-labelled marker HEL(46-61)Y, cold peptide >550 μm, pH 5
Experimental: (§1) Peptide-MHC complexes were obtained by incubating ^125I-labelled peptide (10-100 nM) with affinity purified MHC class II molecules (2- 10 μM) at room temperature for 3 days (S. Mouritsen, J Immunol. 148, 1438-1444, 1992). The following peptides were used as radiolabelled markers of binding: Hb(64-76)Y which binds strongly to the E^k molecule and HEL(46-61)Y which binds strongly to the A^k molecule. These complexes were incubated with large amounts of cold non radiolabelled peptide (>550 μm) which should be sufficient to inhibit totally all immunologically relevant MHC class II binding. Either the same peptides were used or were three different overlapping peptides representing the flanking regions as well as the entire OVA(325-336) sequence, containing the T cell epitope, which was substituted into ubiquitin (see Example 2). The three peptides were: TITLEPSQAVHAA (U(12-26)), PSQAVHAAHAEINEKE (U(19-34)) and HAEINEKEGIPPDQQ (U(27-41)). The reaction buffer contained 8 mM citrate, […], and 0.05% NP-40 (pH 5) and peptide-MHC class II complexes were separated (in duplicate) from free peptide by gel filtration using G25 spun columns. Both the radioaictivities of the excluded “void” volume and of the included “void” were measured by gamma spectrometry. The competitive inhibition of maximal binding (in percent) by addition of cold peptide was calculated.

E^k molecule = assay: Competitive inhibition of radiolabelled peptide binding to affinity purified MHC class II E^k; parameters: species or system mouse; conditions: 125I-labelled marker Hb(64-76)Y, cold peptide >550 μm, pH 5
Experimental: as §1

Row | Substance | competitive inhibition of maximal binding by addition of cold peptide (A^k molecule) | competitive inhibition of maximal binding by addition of cold peptide (E^k molecule)
1 | PSQAVHAAHAEINEKE [U(19-34), overlapping peptide of the OVA(325-336) region substituted into ubiquitin] | 44.6% | 12.2%
2 | HEL(46-61): marker peptide which binds strongly to the A^k molecule; cold version used as competitor [reference compound] | 97.4% | 0.0%
3 | HAEINEKEGIPPDQQ [U(27-41), overlapping peptide of the OVA(325-336) region substituted into ubiquitin] | 7.8% | 0.0%
4 | TITLEPSQAVHAA [U(12-26), overlapping peptide of the OVA(325-336) region substituted into ubiquitin] | 35.3% | 45.6%
